# T1: biotinylated human Ang2 protein (human, UniProt O15123 19-496, limits assumed, biotinylated (sites not given))
# T1 construct: also called hAng2
# T1 sequence (looked up): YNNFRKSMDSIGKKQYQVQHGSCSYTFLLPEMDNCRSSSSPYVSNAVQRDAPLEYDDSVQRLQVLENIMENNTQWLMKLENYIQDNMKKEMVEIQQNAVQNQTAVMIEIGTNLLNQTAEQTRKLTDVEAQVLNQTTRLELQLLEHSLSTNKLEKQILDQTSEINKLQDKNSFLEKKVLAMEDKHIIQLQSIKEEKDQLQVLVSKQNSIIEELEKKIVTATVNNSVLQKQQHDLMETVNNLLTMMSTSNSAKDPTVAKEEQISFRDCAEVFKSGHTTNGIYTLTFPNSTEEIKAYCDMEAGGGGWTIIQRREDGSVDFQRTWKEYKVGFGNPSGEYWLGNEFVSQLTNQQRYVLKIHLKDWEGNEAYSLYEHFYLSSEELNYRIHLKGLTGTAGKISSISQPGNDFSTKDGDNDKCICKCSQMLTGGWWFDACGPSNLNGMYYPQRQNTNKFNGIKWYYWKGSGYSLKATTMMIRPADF
# T2: mouse Ang2 (construct not stated) (mouse, UniProt O35608 19-496, limits assumed)
# T2 construct: also called mAng2
# T2 sequence (looked up): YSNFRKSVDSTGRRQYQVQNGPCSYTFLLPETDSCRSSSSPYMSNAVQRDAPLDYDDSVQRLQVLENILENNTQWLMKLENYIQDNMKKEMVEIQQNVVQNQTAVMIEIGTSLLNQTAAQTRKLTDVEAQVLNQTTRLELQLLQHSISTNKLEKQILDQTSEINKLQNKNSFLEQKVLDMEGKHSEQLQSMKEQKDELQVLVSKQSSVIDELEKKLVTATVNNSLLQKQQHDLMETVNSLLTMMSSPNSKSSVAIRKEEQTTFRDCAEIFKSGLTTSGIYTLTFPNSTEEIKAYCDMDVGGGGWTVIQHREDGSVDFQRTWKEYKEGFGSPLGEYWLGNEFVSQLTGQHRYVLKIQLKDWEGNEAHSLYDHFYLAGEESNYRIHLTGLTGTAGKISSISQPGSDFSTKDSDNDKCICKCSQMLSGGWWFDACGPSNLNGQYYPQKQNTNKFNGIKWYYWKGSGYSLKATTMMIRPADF
# T3: His-tagged human Ang1 (R&D systems, 923-AN/CF) (human, UniProt Q15389 20-498, limits assumed)
# T3 construct: Bought protein; also called hAng1-his; not shown: His tag
# T3 sequence (looked up): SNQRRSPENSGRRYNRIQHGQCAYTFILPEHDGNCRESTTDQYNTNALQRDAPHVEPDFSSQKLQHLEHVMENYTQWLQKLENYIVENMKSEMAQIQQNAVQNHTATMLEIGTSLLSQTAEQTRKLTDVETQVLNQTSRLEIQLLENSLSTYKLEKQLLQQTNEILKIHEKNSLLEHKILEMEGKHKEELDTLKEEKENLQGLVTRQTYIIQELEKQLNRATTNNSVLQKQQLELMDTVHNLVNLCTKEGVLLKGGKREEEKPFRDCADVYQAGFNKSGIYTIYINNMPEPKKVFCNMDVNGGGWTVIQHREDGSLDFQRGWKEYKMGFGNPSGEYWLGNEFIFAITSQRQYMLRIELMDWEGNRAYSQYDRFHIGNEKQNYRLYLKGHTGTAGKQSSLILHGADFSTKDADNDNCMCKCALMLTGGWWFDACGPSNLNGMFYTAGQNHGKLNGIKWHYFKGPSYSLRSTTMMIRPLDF
# B1: No. 3 anti-Ang2 antibody (IgG) (antibody, V domains shown)
# VH: QMQLVQSGGGLVQPGRSLKLSCAASGFSFDDYAMHWVRQAPGKGLEWVATIKDDGSQTYYVDSVKGRFTISRDNAKSSLFLQMNSLRAEDTAVYYCTTEGLMNGLHFDMWGQGTMVTVSS
# VL: LVLTQPPSVSGAPGQGVTISCTGSSSNIGAGYDVHWYQQFPGTAPKLLISGNNNRPSGLPDRFSGSKSGTSASLAITGLQAEDEADYYCQSYDSRLGVVFGGGTKLTVLG
# notes: IgG form: VH cloned into Invivogen pfusess-hchg1 (heavy chain constant region), VL into Invivogen pfuse2ss-hclk (light chain constant region); Expressed in Expi293F, purified on Protein A; also called 1D10
# B2: No. 8 anti-Ang2 antibody (IgG) (antibody, V domains shown)
# VH: QVQLVESGGGLVKPGGSLRLSCAASGFTFSSYSMNWVRQAPGKGLEWVSSISASDGATYYADSVRGRFTISRDNSRSTLYLQMNSLRAEDTAVYYCAKILAGYSGPMGGMDVWGQGTTVTVSS
# VL: DIQMTQSPSSLSASVGDRVTITCRASRDISNYLAWYQQKPGKAPKSLIYGASNLQSGVSSQFSGSGSGTDFTLTINSLQPEDSATYYCQQYYSYPLTFGGGTKVDIKR
# notes: IgG form: VH cloned into Invivogen pfusess-hchg1, VL into Invivogen pfuse2ss-hclk; also called 3A10
# B3: No. 46 anti-Ang2 antibody (IgG) (antibody, V domains shown)
# VH: QVQLVESGGGLVQPGRSLRLSCAASGFTFDDCAMHWVRQAPGKGLEWVSGISGNSKNVAYADSVKGRFSISRDDAKNSLYLQMNSLRAEDTAVYYCARDPAYSQFDYWGQGTLITVSS
# VL: QSALTQPPSLSATPGQRVTISCSGSSSNVGGYPVNWYQQVPGAAPKLLMYTDYKRPSGVPDRFFGSKSGTSASLAISGLQSEDEADYYCATWDDNLNGYVFGTGTKVTVLG
# notes: IgG form: VH cloned into Invivogen pfusess-hchg1, VL into Invivogen pfuse2ss-hclk; also called 3C6
# B4: No. 4 anti-Ang2 antibody (IgG) (antibody, V domains shown)
# VH: QVQLVESGAEVKRPGESLRISCKTSGYSFTSYWIHWVRQMPGKELEWMGSIYPGNSDTRYSPSFQGHVTISADSSSSTAYLQWSSLKASDTAMYYCTTEGLMNGLHFDMWGQGTMVTVSS
# VL: DIVMTQTPLSLPVTPGEPASISCRSSQSLLHSLGDNYLDWYLQKPGQSPQLLIYLGSKRAAGVPDRFSGSGSGTDFTLKISRVEAEDVGVYYCMQSLQTPPYTFGQGTKLEIKR
# notes: IgG form: VH cloned into Invivogen pfusess-hchg1, VL into Invivogen pfuse2ss-hclk; also called 2D8
# B5: No. 41 anti-Ang2 antibody (IgG) (antibody, V domains shown)
# VH: QVQLVESGGGLVQPGGSLRLSCEASGFAFGRYEMNWVRQAPGKGLEWIAYIDTGGGAKVYADSVKGRFTISRDDSKNSLYLQMNSLRAEDTAVYYCTTEGLMNGLHFDMWGQGTMITVSS
# VL: DIQMTQSPSTLSASVGDRVAITCRASQAISTWLAWYQQKPGKAPKLLIYTASTLESGVPSRFSGSGSGTDFTLTINSLQPDDFATYYCQQLNSYPYTFGGGTKVEIKR
# notes: IgG form: VH cloned into Invivogen pfusess-hchg1, VL into Invivogen pfuse2ss-hclk; also called 2B2
# Columns and labels:
# [1] = biological target: T1, biotinylated human Ang2 protein; assay: competition ELISA: antibody preincubated with biotinylated hAng2, binding to coated human Tie2-Fc
# Description: (§1) 1 μg/ml (100 μl per well) of a human Ti32-Fc (R&D Systems, 313-TI) or mouse Tie2-Fc (R&D Systems, 762-T2-100) solution, an integrin α3/β1 solution (R&D systems, 2840-A3-050), or an integrin α5/β1 solution (R&D systems, 3230-A5-050) was added to a 96-well immunoplate (Nunc, US) and then allowed to stand overnight at 4° C. for adsorption. The next day, the plate was washed four times with PBS containing 0.05% Tween-20 (hereinafter, referred to as PBST), and 200 μl of a 2% BSA/PBST solution was added to each well and then allowed to stand at room temperature for 1 hour to perform blocking. Anti-Ang2 candidate antibodies were serially diluted 4-fold at a maximum of 1000 nM, and biotinylated human Ang2 protein was made to a final concentration of 100 ng/mL or 625 ng/mL, followed by previous binding at room temperature for 1 hour. […] The plate was washed three times with PBST, 100 μl of HRP-conjugated streptavidin (R&D Systems, DY998) diluted to 1:200 was added to allow a reaction to occur at room temperature for 1 hour, thereby inducing binding, and the plate was washed four times with PBST, followed by color development using 100 μl of a TMB substrate reagent. The color development reaction was stopped by adding 50 μl of 2N H₂SO₄, and a Sunrise microplate reader (TECAN, CH) was used to measure specific absorbance OD₄₅₀ (FIGS. 4 and 5).
# [2] = biological target: T2, mouse Ang2 (construct not stated); assay: competition ELISA: antibody preincubated with mAng2, binding to coated mouse Tie2-Fc
# [3] = biological target: T1, biotinylated human Ang2 protein; assay: competition ELISA: antibody preincubated with biotinylated hAng2, binding to coated integrin α3/β1
# Description: as §1
# [4] = biological target: T3, His-tagged human Ang1 (R&D systems, …); assay: binding ELISA, His-tagged human Ang1 coated at 1 µg/ml, detection with HRP anti-human IgG(kappa) [panel 'human Ang1 binding ELISA']
# Description: 1 μg/ml (100 μl per well) of a His-tagged human (R&D systems, 623-AN/CF) or mouse (sino, 50298-M07H) Ang2 solution or a His-tagged human (R&D systems, 923-AN/CF) or mouse (sino, 50300-M07H) Ang1 solution was added to a 96-well immunoplate (Nunc, US) and allowed to stand overnight at 4° C. for adsorption. The next day, the solution was washed three times with PBS containing 0.05% Tween-20 (hereinafter, referred to as PBST), and 200 μl of a 2% BSA/PBST solution was added to each well and then allowed to stand at room temperature for 2 hours to perform blocking. After washing three times with PBST, 100 μl of each test antibody solution was added to each well according to concentration to cause binding at room temperature for 1 hour, and then washing was performed three times with PBST, 100 μl of HRP-conjugated goat anti-human IgG(kappa) (bethyl lab #A80-115P) diluted to 1:2000 was added and allowed to react at room temperature for 1 hour, thereby inducing binding, and after washing three times with PBST, color development was performed using 100 μl of a TMB substrate reagent. The color development reaction was stopped by adding 50 μl of 2N H₂SO₄, and a Sunrise microplate reader (TECAN, CH) was used to measure specific absorbance OD₄₅₀₋₆₃₀ (FIG. 3).
Binder,IC50 [1] [nM],IC50 [2] [nM],IC50 [3] [nM],binding result [4]
B1,0.491,5.02,2.5,no binding (tested: 2 mg/ml (unit as read in the legend))
B2,0.495,4.83,4.68,no binding (tested: 2 mg/ml (unit as read in the legend))
B3,0.337,5.25,4.39,no binding (tested: 2 mg/ml (unit as read in the legend))
B4,0.462,4.54,2.42,no binding (tested: 2 mg/ml (unit as read in the legend))
B5,0.475,3.98,2.43,no binding (tested: 2 mg/ml (unit as read in the legend))

# — patent publication US20220204603A1 (PHARMABCINE, published 2022)
